We go through 21 molecules from patent US12281181.

Assay [1] concerns the target T1, Recombinant GST-NEMO (NEMO(1-196)) (UniProt Q9Y6K9 1-196, biotinylated in the library screen).
T1 construct: range 1-196; Expressed in E. coli BL21(DE3); also called NF-κB essential modulator; IKKγ; not shown: glutathione S-transferase (GST) tag encoded by the pGEX4T3 vector
The experiment in a line: HTRF competition, GST-NEMO + biotin-IKKβKK/RR(701-745), peptide 0-100 µM.

The target of assay [2] is T1, Recombinant GST-NEMO (NEMO(1-196)). The assay can be described thus: HTRF competition IC50, alanine scan against peptide 7.
Assay [3] shares this target. The assay can be described thus: HTRF competition IC50 against peptide 7. On the technique in general: Time-resolved FRET reads energy transfer from a long-lived donor to a nearby acceptor.
For assay [4] the target is unchanged. The assay can be described thus: HTRF competition IC50, peptide 7 against peptide 6.
Assay [5] addresses NEMO (endogenous, inside cultured cells) (UniProt Q9Y6K9 1-419). The assay can be described thus: cell-based or functional assay.
In assay [6] the target is T1, Recombinant GST-NEMO (NEMO(1-196)). The experiment in a line: fluorescence anisotropy (FA), direct binding. Background: In fluorescence polarisation assays a small probe gives low polarisation when free and higher when bound to something large.
The target is the same in assay [7]. The experiment in a line: HTRF competition, GST-NEMO + biotin-IKKβKK/RR(701-745).

Numbered stars: 1 amine (or outer) side, 2 acyl side, 3 side chain; on linkers, the order of the positions; unused ones are H or OH. Bridge positions count the residues as written; N and C are the ends. Square brackets hold non-standard residues; d marks the D form. Ends that are not written are not given here. Trimesoyl = O=C(c1cc(C(=O)[*:2])cc(C(=O)[*:3])c1)[*:1]; 2Nal = N[C@@H](Cc1ccc2ccccc2c1)C(=O)O; Dap = NC[C@H](N)C(=O)O; βAla = NCCC(=O)O

T1 sequence (Q9Y6K9 1-196): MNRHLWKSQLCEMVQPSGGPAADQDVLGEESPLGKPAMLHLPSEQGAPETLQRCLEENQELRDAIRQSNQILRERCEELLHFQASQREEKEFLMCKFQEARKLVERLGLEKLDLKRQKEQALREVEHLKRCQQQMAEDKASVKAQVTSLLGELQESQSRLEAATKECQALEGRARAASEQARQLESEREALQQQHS
NEMO (endogenous, inside cultured cells), sequence (Q9Y6K9 whole entry): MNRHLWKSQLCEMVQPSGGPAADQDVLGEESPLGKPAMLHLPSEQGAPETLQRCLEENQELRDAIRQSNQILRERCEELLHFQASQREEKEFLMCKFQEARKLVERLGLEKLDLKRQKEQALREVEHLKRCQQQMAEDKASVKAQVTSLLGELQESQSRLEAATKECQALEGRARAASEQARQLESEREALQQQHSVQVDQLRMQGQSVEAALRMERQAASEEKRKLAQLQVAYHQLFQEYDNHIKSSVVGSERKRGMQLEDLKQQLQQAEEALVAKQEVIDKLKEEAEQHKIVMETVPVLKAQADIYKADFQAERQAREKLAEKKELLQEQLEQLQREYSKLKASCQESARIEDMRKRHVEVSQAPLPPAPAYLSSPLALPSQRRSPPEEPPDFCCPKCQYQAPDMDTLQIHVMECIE

B1: peptide 9 (peptide)
peptide: AGWIY[Dap]F[2Nal]R[dR]R[Dap][βAla][βAla]K
modifications: linker (positions not given here) via trimesic acid; not fully specified (bridges); printed as Tm(AGWIY)Δ(FΦRrRΔ)-BBK
The term IC50 denotes the concentration that inhibits the measured activity by half. Consider B1, for which, in assay [1], the half-inhibitory concentration (IC50) was determined as 2200 nM.

B2: peptide 12 (peptide)
peptide: GAIYA[Dap]F[2Nal]R[dR]R[Dap][βAla][βAla]K
modifications: linker (positions not given here) via trimesic acid; not fully specified (bridges); printed as Tm(GAIYA)Δ(FΦRrRΔ)-BBK
B2: the fold decrease in potency against peptide 7 in assay [2] was 2 to 3 fold. For the same molecule, the IC50 in assay [1] worked out at 3000 nM.

B3: peptide 21 (peptide)
peptide: GAAAA[Dap]F[2Nal]R[dR]R[Dap][βAla][βAla]K
modifications: linker (positions not given here) via trimesic acid; not fully specified (bridges); printed as Tm(GAAAA)Δ(FΦRrRΔ)-BBK
Take B3: in assay [3], the fold lower NEMO-binding affinity against peptide 7 is above 100 fold.

B4: peptide 7 (peptide)
peptide: GWIYA[Dap]F[2Nal]R[dR]R[Dap][βAla][βAla]K
modifications: linker N-6-12 via Trimesoyl; not fully specified (N-terminus); printed as Tm(GWIYA)Δ(FΦRrRΔ)-BBK
In the case of B4, the fold increase in binding affinity against peptide 6 in assay [4] turned out to be 5.9 fold. Besides, the “inhibition of TNFα-induced NF-κB activation, luciferase in HEK293(Luc) cells, IC50” value in assay [5] stood at 10000 nM. For the same molecule, the 50% inhibitory concentration (IC50) in assay [1] is 1000 nM.

B5: peptide 3 (peptide)
peptide: GWIY[Dap]F[2Nal]RRRR[Dap][βAla][βAla]K
modifications: linker (positions not given here) via trimesic acid; not fully specified (bridges); printed as Tm(GWIY)Δ(FΦRRRRΔ)-BBK
Consider B5, for which the half-maximal inhibitory concentration (IC50) in assay [1] was found to be 1500 nM.

B6: peptide 15 (peptide)
peptide: GWIYA[Dap]A[2Nal]R[dR]R[Dap][βAla][βAla]K
modifications: linker (positions not given here) via trimesic acid; not fully specified (bridges); printed as Tm(GWIYA)Δ(AΦRrRΔ)-BBK
B6: in assay [1], the IC50 was found to be 1900 nM.

B7: peptide 14 (peptide)
peptide: GWIAA[Dap]F[2Nal]R[dR]R[Dap][βAla][βAla]K
modifications: linker (positions not given here) via trimesic acid; not fully specified (bridges); printed as Tm(GWIAA)Δ(FΦRrRΔ)-BBK
With B7, in assay [1], the half-inhibitory concentration (IC50) came to 2800 nM.

B8: fluorescently labeled peptide 7 (peptide)
peptide: GWIYA[Dap]F[2Nal]R[dR]R[Dap][βAla][βAla]K
modifications: linker (positions not given here) via trimesic acid; not fully specified (bridges); printed as Tm(GWIYA)Δ(FΦRrRΔ)-BBK; also: FITC label, site not given here
A word on the Kd: it is a measure of binding affinity in units of concentration. As to B8, the Kd in assay [6] is 220 nM.
Turning to GWIY[dA][Dap]F[2Nal]R[dR]R[Dap][βAla][βAla]K (linker N-6-12 via Trimesoyl) [peptide 8], in assay [1], the IC50 amounted to 2900 nM.

B9: peptide 13 (peptide)
peptide: GWAYA[Dap]F[2Nal]R[dR]R[Dap][βAla][βAla]K
modifications: linker (positions not given here) via trimesic acid; not fully specified (bridges); printed as Tm(GWAYA)Δ(FΦRrRΔ)-BBK
Take B9: the fold decrease in potency against peptide 7 in assay [2] fell in the range of 2 to 3 fold. Further, the IC50 in assay [1] turned out to be 1700 nM.

B10: peptide 19 (peptide)
peptide: GWIYA[Dap]F[2Nal]R[dR]A[Dap][βAla][βAla]K
modifications: linker (positions not given here) via trimesic acid; not fully specified (bridges); printed as Tm(GWIYA)Δ(FΦRrAΔ)-BBK
As to B10, the IC50 in assay [1] was 1200 nM.

B11: peptide 20 (peptide)
peptide: GAIAA[Dap]F[2Nal]R[dR]R[Dap][βAla][βAla]K
modifications: linker (positions not given here) via trimesic acid; not fully specified (bridges); printed as Tm(GAIAA)Δ(FΦRrRΔ)-BBK
As for B11, in assay [3], the fold lower NEMO-binding affinity against peptide 7 turned out to be 16 fold. In addition, the IC50 in assay [1] was determined as 16000 nM.

B12: peptide 18 (peptide)
peptide: GWIYA[Dap]F[2Nal]R[dA]R[Dap][βAla][βAla]K
modifications: linker (positions not given here) via trimesic acid; not fully specified (bridges); printed as Tm(GWIYA)Δ(FΦRaRΔ)-BBK
With B12, in assay [1], the concentration for half-maximal inhibition (IC50) is 2100 nM.

B13: peptide 11 (peptide)
peptide: AWIYA[Dap]F[2Nal]R[dR]R[Dap][βAla][βAla]K
modifications: linker (positions not given here) via trimesic acid; not fully specified (bridges); printed as Tm(AWIYA)Δ(FΦRrRΔ)-BBK
Regarding B13, in assay [1], the IC50 amounted to 1200 nM.

B14: peptide 5 (peptide)
peptide: GWIY[Dap]F[2Nal]RRR[Dap][dR][βAla]K
modifications: linker N-5-11 via Trimesoyl; not fully specified (N-terminus); printed as Tm(GWIY)Δ(FΦRRRA)-rBK
notes: Bicyclic peptide; D-arginine outside the B ring
Regarding B14, the IC50 in assay [1] was 1300 nM.

B15: peptide 6 (peptide)
peptide: GWIY[Dap]F[2Nal]R[dR]R[Dap][βAla][βAla]K
modifications: linker (positions not given here) via trimesic acid; not fully specified (bridges); printed as Tm(GWIY)Δ(FΦRrRΔ)-BBK
B15: in assay [1], the IC50 stood at 5900 nM.

B16: peptide 17 (peptide)
peptide: GWIYA[Dap]F[2Nal]A[dR]R[Dap][βAla][βAla]K
modifications: linker (positions not given here) via trimesic acid; not fully specified (bridges); printed as Tm(GWIYA)Δ(FΦArRΔ)-BBK
Consider B16, for which the IC50 in assay [1] was determined as 1100 nM.

B17: peptide 4 (peptide)
peptide: GWIY[Dap]F[2Nal]RRR[Dap]R[βAla]K
modifications: linker N-5-11 via Trimesoyl; not fully specified (N-terminus); printed as Tm(GWIY)Δ(FΦRRRA)-RBK
notes: Bicyclic peptide; 4th arginine outside the B ring
For the molecule B17, in assay [1], the 50% inhibitory concentration (IC50) stood at 1800 nM.

B18: peptide 2 (peptide)
peptide: GWIY[Dap]F[2Nal]RRR[Dap][βAla][βAla]K
modifications: linker (positions not given here) via trimesic acid; not fully specified (bridges); printed as Tm(GWIY)Δ(FΦRRRΔ)-BBK
Consider B18, for which the IC50 in assay [7] was 3400 to 28000 nM; in assay [1] it was 3400 nM.

B19: peptide 16 (peptide)
peptide: GWIYA[Dap]FAR[dR]R[Dap][βAla][βAla]K
modifications: linker N-6-12 via Trimesoyl; not fully specified (N-terminus); printed as Tm(GWIYA)Δ(FARrRΔ)-BBK
notes: Alanine-scan variant of peptide 7
B19: the IC50 in assay [1] was 2800 nM.

B20: peptide 10 (peptide)
peptide: [dA]GWIY[Dap]F[2Nal]R[dR]R[Dap][βAla][βAla]K
modifications: linker (positions not given here) via trimesic acid; not fully specified (bridges); printed as Tm(aGWIY)Δ(FΦRrRΔ)-BBK
On to B20, for which the IC50 in assay [1] was 2300 nM.
